Source: doi:10.64898/2025.12.20.695652 (bioRxiv, 2025)
pKd: −log10 of the molar value.

Target: N237_S47D with C-terminal human Fc tag
Assay: BLI

**Q.** How did the pKd turn out when “Nipah virus attachment glycoprotein G receptor-binding domain (from UniProt Q9IH62 176-602) (domain or fragment)” was run?
**A.** 8.42
